Assays:
[1] = target: recombinant cylindracin (C-terminal cysteine-rich domain of cylindracin) (Cyclocybe cylindracea); test: cross-linking; rCYL at 0.25 mg/mL (39 uM) with 0.005-5 mM BS(PEG)9 in 20 mM sodium phosphate pH 7.2, 150 mM NaCl, 25 C, 30 min; SDS-PAGE, Coomassie staining
[2] = target: recombinant cylindracin (C-terminal cysteine-rich domain of cylindracin) (Cyclocybe cylindracea); test: cross-linking; rCYL raised from 0.25 mg/mL (39 uM) to 2.0 mg/mL (312 uM) with BS(PEG)9 at 500 uM; SDS-PAGE, Coomassie staining
[3] = target: recombinant cylindracin (C-terminal cysteine-rich domain of cylindracin) (Cyclocybe cylindracea); test: as above; remark: listed apart in the source

recombinant cylindracin (C-terminal cysteine-rich domain of cylindracin) (domain or fragment)
stoichiometry N [1]: 2 | stoichiometry N [2]: 2 | stoichiometry N [3]: 4

From PMC11946224
